Results on one substance are retold here after patent publication US20250210128A1, “COMPUTER-IMPLEMENTED DESIGN OF PEPTIDE:RECEPTOR SIGNALING COMPLEXES FOR ENHANCED CHEMOTAXIS” (Ecole Polytechnique Federale de Lausanne (EPFL), priority 2022, published 2025).

The target of test [1] is WT CXCR4 with an N-terminal 3xHA-tag (human) (UniProt P61073). As to the kind of experiment: cell-based or functional assay.
The target in test [2] is CLdes CXCR4 sensor (Cdes2 design combined with H113N) (human). As to the kind of experiment: cell-based or functional assay.

WT CXCR4 with an N-terminal 3xHA-tag (human), sequence (P61073 other isoform, or with tags, fused parts or gaps): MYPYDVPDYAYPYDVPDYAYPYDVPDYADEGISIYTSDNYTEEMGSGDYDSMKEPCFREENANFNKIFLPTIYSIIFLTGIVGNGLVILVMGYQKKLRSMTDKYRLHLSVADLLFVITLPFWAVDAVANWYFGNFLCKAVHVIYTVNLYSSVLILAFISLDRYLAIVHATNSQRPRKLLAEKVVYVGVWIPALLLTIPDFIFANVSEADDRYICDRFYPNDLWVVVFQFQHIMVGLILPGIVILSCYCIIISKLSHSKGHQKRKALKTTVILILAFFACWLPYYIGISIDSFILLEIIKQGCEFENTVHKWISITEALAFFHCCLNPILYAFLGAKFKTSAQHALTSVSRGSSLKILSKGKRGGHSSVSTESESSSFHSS

In the case of “full-length wild-type CXCL12 chemokine (from UniProt P48061 22-93) (ligand)”, the migration of transduced primary human T cells (Boyden chamber, migration index over no-chemoattractant control) in test [1] was 1.5 fold; in test [2], less than 5 fold.
